Reference: article PMC8531335, “Point mutations in Candida glabrata 3-hydroxy-3-methylglutaryl-coenzyme A reductase (CgHMGR) decrease enzymatic activity and substrate/inhibitor affinity” (Scientific Reports, 2021)

test system: CC(C)(COP(=O)(O)OP(=O)(O)OC[C@H]1O[C@@H](n2cnc3c(N)ncnc32)[C@H](O)[C@@H]1OP(=O)(O)O)[C@@H](O)C(=O)NCCC(=O)NCCSC(=O)C[C@@](C)(O)CC(=O)O; test: purified protein; assay type: biochemical, Nakaseomyces glabratus; conditions: NADPH co-substrate, Tris-HCl; HMG-CoA 1-64 µM; MBP fusion

Row | Substance | Km [µM]
1 | CgHMGR (Rec-MBP-CgHMGR, catalytic domain of Candida glabrata HMGR) (Nakaseomyces glabratus CBS 138; D805A) | 11.84
2 | CgHMGR (Rec-MBP-CgHMGR, catalytic domain of Candida glabrata HMGR) (Nakaseomyces glabratus CBS 138; E680Q) | 8.31
3 | CgHMGR (Rec-MBP-CgHMGR, catalytic domain of Candida glabrata HMGR) (Nakaseomyces glabratus CBS 138; E711Q) | 18
